In article PMC12048511, “An asymmetric nautilus-like HflK/C assembly controls FtsH proteolysis of membrane proteins” (The EMBO Journal, 2025):

Molecular target: T1, FtsH with a C-terminal FLAG epitope (chromosomally encoded) (E. coli, UniProt P0AAI3 1-644)
T1 construct: FtsH, E. coli BL21(DE3), product of the chromosomal ftsH gene with a tag appended to its C-terminus; residues 31-97 (periplasmic domain) are modelled in PDB 9CZ2; Homohexamer; one or two hexamers per HflK/C assembly; also called FtsH-FLAG (C-terminal); tagged FtsH; source: E. coli BL21(DE3), chromosomal ftsH locus modified (no overproduction); anti-FLAG M2 resin from membranes solubilised with …
T1 sequence (P0AAI3 whole entry, the tested form may be a part): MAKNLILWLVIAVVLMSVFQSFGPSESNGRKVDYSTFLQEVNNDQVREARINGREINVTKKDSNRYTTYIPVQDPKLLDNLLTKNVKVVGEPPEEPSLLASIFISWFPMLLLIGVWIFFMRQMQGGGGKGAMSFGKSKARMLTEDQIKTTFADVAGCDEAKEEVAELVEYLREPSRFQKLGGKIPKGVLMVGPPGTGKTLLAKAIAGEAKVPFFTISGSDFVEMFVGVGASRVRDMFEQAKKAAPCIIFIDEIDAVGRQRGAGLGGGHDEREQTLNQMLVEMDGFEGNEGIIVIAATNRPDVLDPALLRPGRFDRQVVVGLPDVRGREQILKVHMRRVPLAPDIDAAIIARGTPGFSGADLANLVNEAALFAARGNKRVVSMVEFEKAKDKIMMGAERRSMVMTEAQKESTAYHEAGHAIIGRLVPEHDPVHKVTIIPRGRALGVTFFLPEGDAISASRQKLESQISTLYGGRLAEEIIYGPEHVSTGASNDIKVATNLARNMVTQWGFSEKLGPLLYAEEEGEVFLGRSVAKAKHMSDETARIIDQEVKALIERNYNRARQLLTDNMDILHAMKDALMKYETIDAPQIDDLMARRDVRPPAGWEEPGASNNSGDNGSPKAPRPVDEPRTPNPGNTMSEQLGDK
Assay: co-IP; anti-FLAG M2 resin on solubilised membranes of E. coli with chromosomally FLAG-tagged FtsH (1% DDM or 2% GDN; also detergent-free with Carboxy-DIBMA), eluted with FLAG peptide; no overproduction
Details: partners not purified

binding result: binds
B1: HflK (endogenous) (natural protein, E. coli (endogenous in BL21(DE3)), UniProt P0ABC7 1-419, looked up)
chain: MAWNQPGNNGQDRDPWGSSKPGGNSEGNGNKGGRDQGPPDLDDIFRKLSKKLGGLGGGKGTGSGGGSSSQGPRPQLGGRVVTIAAAAIVIIWAASGFYTIKEAERGVVTRFGKFSHLVEPGLNWKPTFIDEVKPVNVEAVRELAASGVMLTSDENVVRVEMNVQYRVTNPEKYLYSVTSPDDSLRQATDSALRGVIGKYTMDRILTEGRTVIRSDTQRELEETIRPYDMGITLLDVNFQAARPPEEVKAAFDDAIAARENEQQYIREAEAYTNEVQPRANGQAQRILEEARAYKAQTILEAQGEVARFAKLLPEYKAAPEITRERLYIETMEKVLGNTRKVLVNDKGGNLMVLPLDQMLKGGNAPAAKSDNGASNLLRLPPASSSTTSGASNTSSTSQGDIMDQRRANAQRNDYQRQGE
notes: HflK, E. coli BL21(DE3), SPFH-domain protein; residues 79-355 modelled for most subunits in PDB 9CZ2; 24 alternating HflK and HflC subunits form the nautilus-like assembly; also called HflK/C subunit; source: endogenous, E. coli BL21(DE3), co-purified with FtsH-FLAG on anti-FLAG resin
